According to paper PMC12816671:

Assays:
Ku70/80-dSAP = Ku70/80-dSAP (Homo sapiens, UniProt P12956;P13010 1-544;1-732); experiment: EMSA; higher shift than full length, multiple loading; SAP EMSA: 105 mM KCl (400 bp) or 46 mM KCl (153 bp), 3 mM Tris-HCl pH 7.5, 0.1 mM EDTA, 3-4% glycerol, 15 min room temp, agarose (0.8% or 1.5%); Ku70/80 EMSA: 5; conditions: protein: recombinant; copies: 1;1
Ku70/80 full length = Ku70/80 full length (Homo sapiens, UniProt P12956;P13010 1-609;1-732); experiment: EMSA; SAP EMSA: 105 mM KCl (400 bp) or 46 mM KCl (153 bp), 3 mM Tris-HCl pH 7.5, 0.1 mM EDTA, 3-4% glycerol, 15 min room temp, agarose (0.8% or 1.5%); Ku70/80 EMSA: 5; conditions: protein: recombinant; copies: 1;1
Chain of Ku70/80 full length (P12956 whole entry, chain 1 of 2, the tested form may be a part): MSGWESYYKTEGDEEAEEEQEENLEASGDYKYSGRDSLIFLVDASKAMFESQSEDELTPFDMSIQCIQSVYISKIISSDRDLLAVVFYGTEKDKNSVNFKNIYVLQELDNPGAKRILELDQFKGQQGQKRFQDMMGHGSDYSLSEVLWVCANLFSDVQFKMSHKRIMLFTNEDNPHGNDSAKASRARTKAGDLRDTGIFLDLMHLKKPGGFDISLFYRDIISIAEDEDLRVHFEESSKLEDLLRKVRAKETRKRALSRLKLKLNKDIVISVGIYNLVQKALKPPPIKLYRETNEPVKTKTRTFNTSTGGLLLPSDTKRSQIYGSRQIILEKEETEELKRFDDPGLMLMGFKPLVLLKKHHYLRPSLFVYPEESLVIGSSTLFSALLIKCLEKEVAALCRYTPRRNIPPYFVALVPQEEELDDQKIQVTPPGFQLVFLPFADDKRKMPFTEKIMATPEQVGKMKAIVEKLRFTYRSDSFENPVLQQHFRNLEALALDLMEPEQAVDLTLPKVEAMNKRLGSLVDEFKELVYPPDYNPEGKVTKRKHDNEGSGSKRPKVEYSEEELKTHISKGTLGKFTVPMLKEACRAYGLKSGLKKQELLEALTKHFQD
Chain of Ku70/80 full length (P13010 whole entry, chain 2 of 2, the tested form may be a part): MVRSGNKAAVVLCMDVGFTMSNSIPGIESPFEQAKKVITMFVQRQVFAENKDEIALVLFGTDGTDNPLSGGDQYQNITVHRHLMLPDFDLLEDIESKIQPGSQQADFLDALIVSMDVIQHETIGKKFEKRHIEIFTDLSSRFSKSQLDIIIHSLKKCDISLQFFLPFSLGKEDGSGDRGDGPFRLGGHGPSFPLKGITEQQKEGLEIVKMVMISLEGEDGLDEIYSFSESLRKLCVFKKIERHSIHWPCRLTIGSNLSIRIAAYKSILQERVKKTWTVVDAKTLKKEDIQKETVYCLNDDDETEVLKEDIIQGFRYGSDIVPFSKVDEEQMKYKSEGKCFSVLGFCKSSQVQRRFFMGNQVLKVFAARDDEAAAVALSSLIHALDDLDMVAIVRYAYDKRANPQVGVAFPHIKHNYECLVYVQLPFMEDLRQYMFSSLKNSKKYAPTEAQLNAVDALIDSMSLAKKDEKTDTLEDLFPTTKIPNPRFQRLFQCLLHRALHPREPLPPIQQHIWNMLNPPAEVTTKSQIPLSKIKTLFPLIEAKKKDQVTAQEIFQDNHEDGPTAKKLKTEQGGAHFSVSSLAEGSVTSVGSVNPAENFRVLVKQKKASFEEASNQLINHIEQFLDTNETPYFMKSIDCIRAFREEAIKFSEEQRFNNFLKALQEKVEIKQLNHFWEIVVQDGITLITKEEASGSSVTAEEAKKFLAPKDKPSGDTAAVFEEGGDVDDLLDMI

Ku70 SAP domain WT = Ku70 SAP domain WT (Homo sapiens, UniProt P12956 539-609); experiment: EMSA; 46 mM KCl; preferred over nucleosome; SAP EMSA: 105 mM KCl (400 bp) or 46 mM KCl (153 bp), 3 mM Tris-HCl pH 7.5, 0.1 mM EDTA, 3-4% glycerol, 15 min room temp, agarose (0.8% or 1.5%); Ku70/80 EMSA: 5; conditions: protein: recombinant; tags: none (His14-SUMObd cleaved)
Chain of Ku70 SAP domain WT (P12956 539-609): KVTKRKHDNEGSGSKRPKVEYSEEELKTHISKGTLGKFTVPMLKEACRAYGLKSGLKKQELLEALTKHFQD

Measured: binding result

Chain of Ku70/80-dSAP (P12956 1-544, chain 1 of 2): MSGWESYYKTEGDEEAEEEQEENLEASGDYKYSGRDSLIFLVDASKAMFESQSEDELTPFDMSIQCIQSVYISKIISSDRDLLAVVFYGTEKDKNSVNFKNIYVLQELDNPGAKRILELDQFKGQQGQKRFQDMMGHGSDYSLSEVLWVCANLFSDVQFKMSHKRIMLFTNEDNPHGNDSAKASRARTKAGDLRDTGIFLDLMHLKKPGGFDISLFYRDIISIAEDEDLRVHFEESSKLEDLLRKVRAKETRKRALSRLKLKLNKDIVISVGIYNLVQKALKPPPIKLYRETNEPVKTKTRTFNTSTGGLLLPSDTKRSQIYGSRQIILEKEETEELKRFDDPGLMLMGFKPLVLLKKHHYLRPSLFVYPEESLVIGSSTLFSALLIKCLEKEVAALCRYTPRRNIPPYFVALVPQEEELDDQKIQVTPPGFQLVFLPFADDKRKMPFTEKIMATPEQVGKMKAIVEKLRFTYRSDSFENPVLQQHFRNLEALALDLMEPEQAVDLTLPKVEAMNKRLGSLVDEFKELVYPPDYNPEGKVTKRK
Chain of Ku70/80-dSAP (P13010 whole entry, chain 2 of 2): as the sequence (P13010 whole entry, chain 2 of 2, the tested form may be a part) above

B1: 153 bp free DNA (dsDNA)
DNA 1: ATCCTGGAGAATCCCGGTGCCGAGGCCGCTCAATTGGTCGTAGACAGCTCTAGCACCGCTTAAACGCACGTACGCGCTGTCCCCCGCGTTTTAACCGCCAAGGGGATTACTCCCTAGTCTCCAGGCACGTGTCAGATATATACATCCTGTGAT
DNA 2: ATCACAGGATGTATATATCTGACACGTGCCTGGAGACTAGGGAGTAATCCCCTTGGCGGTTAAAACGCGGGGGACAGCGCGTACGTGCGTTTAAGCGGTGCTAGAGCTGTCTACGACCAATTGAGCGGCCTCGGCACCGGGATTCTCCAGGAT
binds: all assays above
